The values below come from patent US20040259816A1.

This assay has as its target PKC δ (rat), P09215. Put plainly: cell-based or functional assay.

Chain of PKC δ (rat), P09215 (P09215 whole entry, stated change not applied): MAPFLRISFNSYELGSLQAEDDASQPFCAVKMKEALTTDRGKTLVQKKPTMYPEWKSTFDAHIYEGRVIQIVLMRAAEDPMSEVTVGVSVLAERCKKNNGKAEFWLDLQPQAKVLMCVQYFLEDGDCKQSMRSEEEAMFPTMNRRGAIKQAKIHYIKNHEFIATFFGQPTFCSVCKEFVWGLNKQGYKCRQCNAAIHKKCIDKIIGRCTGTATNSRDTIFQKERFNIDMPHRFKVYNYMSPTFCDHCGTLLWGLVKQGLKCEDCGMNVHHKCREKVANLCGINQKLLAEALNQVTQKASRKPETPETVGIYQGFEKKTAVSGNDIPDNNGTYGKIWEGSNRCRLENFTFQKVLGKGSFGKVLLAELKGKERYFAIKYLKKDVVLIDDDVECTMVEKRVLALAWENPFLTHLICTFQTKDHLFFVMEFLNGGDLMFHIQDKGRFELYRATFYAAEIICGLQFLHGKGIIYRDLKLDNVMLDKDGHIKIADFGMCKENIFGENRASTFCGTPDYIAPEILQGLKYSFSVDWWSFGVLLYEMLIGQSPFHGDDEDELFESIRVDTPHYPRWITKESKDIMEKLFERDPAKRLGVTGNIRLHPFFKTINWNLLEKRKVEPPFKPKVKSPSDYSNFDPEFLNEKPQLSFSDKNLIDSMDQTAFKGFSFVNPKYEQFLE

B1: PKC δ translocation inhibitor δV1-1 conjugated to Drosophila antennapedia peptide (peptide)
peptide: SFNSYELGSLRQIKIWFQNRRMKWKK
B1: the inhibition of CCK-8 induced NF-κB activation (EMSA band intensity, rat pancreatic acini, 10 µM peptide) turned out to be 76% and the inhibition of TNF-α induced NF-κB activation (EMSA band intensity, rat pancreatic acini, 10 µM peptide) worked out at 57%.
